In article PMC5177656, “Cytosolic Triosephosphate Isomerase from Arabidopsis thaliana Is Reversibly Modified by Glutathione on Cysteines 127 and 218” (Frontiers in Plant Science, 2016):

Substrate: O=CC(O)COP(=O)(O)O
Experiment: coupled assay with alpha-glycerophosphate dehydrogenase, NADH consumption
Format: biochemical, Arabidopsis thaliana
Settings: pH 7.8, 30°C, 100 mM Tris-Cl, 5 mM DTT, GAP 0-4 mM (from DL-GAP)
Source text: coupled assay with alpha-glycerophosphate dehydrogenase, NADH consumption on cTPI (cytosolic triosephosphate isomerase)

Row | Protein | Km [µM] | kcat [s⁻¹] | kcat/Km [M⁻¹ s⁻¹]
1 | cTPI (cytosolic triosephosphate isomerase) (Arabidopsis thaliana) (protein, tag removal not mentioned) MARKFFVGGNWKCNGTAEEVKKIVNTLNEAQVPSQDVVEVVVSPPYVFLPLVKSTLRSDFFVAAQNCWVKKGGAFTGEVSAEMLVNLDIPWVILGHSERRAILNESSEFVGDKVAYALAQGLKVIACVGETLEEREAGSTMDVVAAQTKAIADRVTNWSNVVIAYEPVWAIGTGKVASPAQAQEVHDELRKWLAKNVSADVAATTRIIYGGSVNGGNCKELGGQADVDGFLVGGASLKPEFIDIIKAAEVKKSA | 1320 ± 60 | 3410 ± 269 | 2.58e+06 ± 321000
2 | cTPI (cytosolic triosephosphate isomerase) (Arabidopsis thaliana; C127S) (protein, tag removal not mentioned) MARKFFVGGNWKCNGTAEEVKKIVNTLNEAQVPSQDVVEVVVSPPYVFLPLVKSTLRSDFFVAAQNCWVKKGGAFTGEVSAEMLVNLDIPWVILGHSERRAILNESSEFVGDKVAYALAQGLKVIASVGETLEEREAGSTMDVVAAQTKAIADRVTNWSNVVIAYEPVWAIGTGKVASPAQAQEVHDELRKWLAKNVSADVAATTRIIYGGSVNGGNCKELGGQADVDGFLVGGASLKPEFIDIIKAAEVKKSA | 480 ± 40 | 70.4 ± 7.4 | 147000 ± 28000
3 | cTPI (cytosolic triosephosphate isomerase) (Arabidopsis thaliana; C127S/C218S) (protein, tag removal not mentioned) MARKFFVGGNWKCNGTAEEVKKIVNTLNEAQVPSQDVVEVVVSPPYVFLPLVKSTLRSDFFVAAQNCWVKKGGAFTGEVSAEMLVNLDIPWVILGHSERRAILNESSEFVGDKVAYALAQGLKVIASVGETLEEREAGSTMDVVAAQTKAIADRVTNWSNVVIAYEPVWAIGTGKVASPAQAQEVHDELRKWLAKNVSADVAATTRIIYGGSVNGGNSKELGGQADVDGFLVGGASLKPEFIDIIKAAEVKKSA | 500 ± 60 | 14.8 ± 0.8 | 29600 ± 5200
4 | cTPI (cytosolic triosephosphate isomerase) (Arabidopsis thaliana; C218S) (protein, tag removal not mentioned) MARKFFVGGNWKCNGTAEEVKKIVNTLNEAQVPSQDVVEVVVSPPYVFLPLVKSTLRSDFFVAAQNCWVKKGGAFTGEVSAEMLVNLDIPWVILGHSERRAILNESSEFVGDKVAYALAQGLKVIACVGETLEEREAGSTMDVVAAQTKAIADRVTNWSNVVIAYEPVWAIGTGKVASPAQAQEVHDELRKWLAKNVSADVAATTRIIYGGSVNGGNSKELGGQADVDGFLVGGASLKPEFIDIIKAAEVKKSA | 1680 ± 30 | 2690 ± 73 | 1.6e+06 ± 72000
